Key:
[1] = tested on: HLA-DR1 (α1*01:01;β1*01:01); assay: ProImmune REVEAL MHC class II binding assay of long peptides; design: species or system human; conditions: percentage of the signal of the positive control peptide; positive binding score >=15%
Source text: (§1) The highly frequent HLA class II alleles HLA-DR1 (α1*01:01;β1*01:01), HLA-DR15 (α1*01:01;β1*15:01), HLA-DR3 (α1*01:01;β1*03:01), HLA-DR4 (α1*01:01;β1*04:01), HLA-DR11 (α1*01:01;β1*11:01), HLA-DR13 (α1*01:01;β1*13:01), and HLA-DR7 (α1*01:01;β1*07:01) were selected. Each peptide was given a score relative to the positive control peptide, which is a known T-cell epitope. The score of the test peptide is reported quantitatively as a percentage of the signal generated by the positive control peptide, and the peptide is indicated as having a putative pass or fail result. Good binders are considered to be those peptides with scores >=15% of the positive control as defined by Proimmune.

[2] = tested on: HLA-DR3 (α1*01:01;β1*03:0); assay: as above; design: species or system human; conditions: percentage of the signal of the positive control peptide; positive binding score >=15%
Source text: as §1

[3] = biological target: T1, HLA-DR13 (α1*01:01;β1*13:01) (Homo sapiens, UniProt P01903+P01911, A100E/A169T/K41T/L162R/M171V/P40S/Q125H/Q178H/Q39Y/Q99D/R42S/S66N/W38E/Y61H); assay: as above; conditions: percentage of the signal of the positive control peptide; positive binding score >=15%
T1 construct: purchased ProImmune
Source text: The highly frequent HLA class II alleles HLA-DR1 (α1*01:01;β1*01:01), HLA-DR15 (α1*01:01;β1*15:01), HLA-DR3 (α1*01:01;β1*03:01), HLA-DR4 (α1*01:01;β1*04:01), HLA-DR11 (α1*01:01;β1*11:01), HLA-DR13 (α1*01:01;β1*13:01), and HLA-DR7 (α1*01:01;β1*07:01) were selected. Each peptide was given a score relative to the positive control peptide, which is a known T-cell epitope.

HLA class I alleles = assay: ProImmune REVEAL MHC class I binding assay, summary over the seven alleles; design: species or system human; conditions: for Number of allele (b): number of class I alleles for which positive binding was detected; for Number of HLA binders (a): total number binding epitopes detected for each long peptide, seven class I alleles
Source text: (§2) The number of HLA class I binding registers contained in each peptide may be determined by determining the ability of the peptide to bind to a range of frequently occurring HLA class I molecules. HLA class I binding may be measured using the ProImmune REVEAL® MHC-peptide Binding Assay (ProImmune Ltd, Oxford, UK). The REVEAL™ MHC peptide-binding assay measures the ability of each peptide to stabilize the ternary MHC-peptide complex for […], HLA-A*0201, HLA¬A*0301, HLA-A*2402, HLA-B*0702, HLA-B*0801, HLA-B*3501 representative of main HLA class I supertypes. Each tested peptide is given a score relative to a pass/fail control peptide and also compared to a positive control peptide.
(§3) Detection is based on the presence or absence of the native conformation of the MHC-peptide complex. The highly frequent HLA class I alleles (HLA-A*0201, A*0301, A*1101, A*2402, B*0702, B*0801, and B*3501) were selected. Binding to MHC molecules was compared to that of a known T-cell epitope, a positive control peptide, with very strong binding properties. […] The score of the test peptide is reported quantitatively as a percentage of the signal generated by the positive control peptide, and the peptide is indicated as having a putative pass or fail result. Good binders are considered to be those peptides with scores 45% of the positive control as defined by ProImmune.

HLA-A*0201 = HLA-A*0201 (Homo sapiens, UniProt P04439, D140Y/D185E/D98H/E176V/E277Q/G131W/G231S/I119V/I121R/I166T/I218V/L300P/L318F/N151K/N90K/P208A/P217A/Q86G/Q94H/R138H/R169H/T345S); assay: ProImmune REVEAL MHC class I binding assay of nonamers; conditions: score as % of positive control peptide
Source text: as §2, §3

HLA-A*2402 = HLA-A*2402 (Homo sapiens, UniProt P04439, D101N/D140Y/D185E/E176V/E190D/F33S/G103R/G107R/I119L/I121M/I306V/K335N/L105A/L180Q/L300P/N151K/N90K/Q86E/Q94H/R106L/R138H/R89G/T104I/T345S/V100E/W191G/Y123F); assay: as above; conditions: score as % of positive control peptide
Source text: as §2, §3

HLA-B*3501 = HLA-B*3501 (Homo sapiens, UniProt P01889, A329T/A93T/A95T/C349S/D201E/D98Y/E176V/E187L/E204Q/E69T/I218V/K202T/L119I/Q94N/R155S/R180L/S121R/S35A/S48A/T118I/V127L/V306I/V36M/Y140S/Y91F); assay: as above; conditions: score as % of positive control peptide
Source text: as §2, §3

HLA-A*0301 = biological target: T2, HLA-A*0301 (Homo sapiens, UniProt P04439); assay: as above; conditions: score as % of positive control peptide
T2 construct: purchased ProImmune
Source text: as §2, §3

HLA-B*0801 = HLA-B*0801 (Homo sapiens, UniProt P01889, A93T/A95T/D138N/E176V/E187T/K202T/Q94N/R180D/S35A/V36M/Y33D/Y91F); assay: as above; conditions: score as % of positive control peptide
Source text: as §2, §3

HLA-A*1101 = biological target: T3, HLA-A*1101 (Homo sapiens, UniProt P04439, A114D/D185E/E176A/F33Y/L180Q/S129P/T187R); assay: as above; conditions: score as % of positive control peptide
T3 construct: purchased ProImmune
Source text: as §2, §3

HLA-B*0702 = biological target: T4, HLA-B*0702 (Homo sapiens, UniProt P01889); assay: as above; conditions: score as % of positive control peptide
T4 construct: purchased ProImmune
Source text: as §2, §3

[4] = biological target: T5, HLA-DR15 (α1*01:01;β1*15:01) (Homo sapiens, UniProt P01903+P01911); assay: ProImmune REVEAL MHC class II binding assay of long peptides; conditions: percentage of the signal of the positive control peptide; positive binding score >=15%
T5 construct: purchased ProImmune
Source text: as §1

[5] = biological target: T6, HLA-DR7 (α1*01:01;β1*07:01) (Homo sapiens, UniProt P01903+P01911, A100R/A102G/A103Q/D57E/D86V/E43K/F76Y/K127E/L162R/M171V/P40G/Q125H/Q99D/R195Q/R33Q/R42Y/R54Q/S133A/S149N/S66F/T210M/V115G/Y107V/Y59L/Y89S); assay: as above; conditions: percentage of the signal of the positive control peptide; positive binding score >=15%
T6 construct: purchased ProImmune
Source text: as §1

HLA class II alleles = assay: ProImmune REVEAL MHC class II binding assay, summary over the seven alleles; design: species or system human; conditions: number of class II alleles for which positive binding (score >=15%) was detected
Source text: as §1

[6] = tested on: PBMC from chronic HBV-infected subjects; assay: IFNγ ELISpot of PBMC restimulated with individual unconjugated HBV long peptides (Example 5); assay type: cell-based, human; conditions: for T cell responses (IFNγ ELISpot), level and frequency of responders: HBeAg-negative inactive carriers and HBeAg-negative treated subjects, 5 μg/mL, 18 h, FIGS. 9 and 10; for T cell responses (IFNγ ELISpot) grouped by infecting HBV genotype: genotypes A, B, C & D, FIG. 11; for T cell responses (IFNγ ELISpot) grouped by ethnic background: three ethnic groups, FIG. 12
Procedure: One vial of PBMC from each subject (containing 1×10^7 cells) was thawed and lymphocyte numbers were determined using a Scepter™ automated handheld cell counter. PBMC were cultured in 2 mL culture medium (CM: RPMI-1640 Glutamax supplemented with 5% human AB serum) in 24 well cell culture plates at a concentration of 1×10^6 cells/mL for a total of 11 days. Cells were stimulated with a mixture of the nine HBV-derived long peptides described in Example 3.
Each peptide was used at a final concentration of 1 μg/peptide/mL. On Day 4, IL-2 and IL-15 were added to the cultures to final concentrations of 10 IU/mL and 10 ng/mL respectively. On Day 10, cells were washed twice in CM and cultured with 10 IU/mL IL-2 for 1 additional day. On Day 11, cells were washed twice in CM, counted and incorporated in a human IFNγ (interferon-gamma) ELISpot assay or intracellular cytokine staining.
Cells from short term cultures were plated in triplicate wells at 5×10^4 PBMC/well. Final antigen concentrations used were: 5 μg/mL for each individual peptides; PHA positive control: 1 μg/mL.

BALB/c mice = assay: Immunogenicity in mice, IFNγ ELISpot of splenocytes, FP02.1 vs NP02.1 (Example 6); assay type: in vivo; conditions: mice immunised with FP02.1 or NP02.1, restimulation 5 μg/mL/peptide, FIG. 15
Procedure: The immunogenicity in mice of FP02.1 (containing nine fluorocarbon-conjugated peptides) was compared to NP02.1 (containing nine equivalent unconjugated peptides).
Alternatively, splenocytes were stimulated in vitro with 5 μg/mL/peptide of nine individual peptides for 18 hours in an ELISpot assay. The number of IFNγ+ spot forming cells (SFC) was counted. Plates then were washed with PBS, incubated with an IFNγ detection peroxidase-labelled antibody, followed by a substrate, according to the manufacturer's instructions.

T1 sequence (P01903 26-216, other chains not shown): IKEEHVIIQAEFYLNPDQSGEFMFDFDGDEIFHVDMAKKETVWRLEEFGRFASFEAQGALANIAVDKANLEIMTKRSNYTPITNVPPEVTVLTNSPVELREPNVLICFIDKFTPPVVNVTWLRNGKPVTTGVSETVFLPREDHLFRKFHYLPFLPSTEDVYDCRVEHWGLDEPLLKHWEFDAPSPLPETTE

Substance	binding score, HLA-DR1 (α1*01:01;β1*01:01) [1]	binding score, HLA-DR3 (α1*01:01;β1*03:0) [2]	binding score, HLA-DR13 (α1*01:01;β1*13:01) [3]	Number of allele (b) (HLA class I alleles)	Number of HLA binders (a) (HLA class I alleles)	Number of nonamers having a binding score >= 45%, HLA-A*0201 (HLA-A*0201)	Number of nonamers having a binding score >= 45%, HLA-A*2402 (HLA-A*2402)	Number of nonamers having a binding score >= 45%, HLA-B*3501 (HLA-B*3501)	Number of nonamers having a binding score >= 45%, HLA-A*0301 (HLA-A*0301)	Number of nonamers having a binding score >= 45%, HLA-B*0801 (HLA-B*0801)	Number of nonamers having a binding score >= 45%, HLA-A*1101 (HLA-A*1101)	Number of nonamers having a binding score >= 45%, HLA-B*0702 (HLA-B*0702)	binding score, HLA-DR15 (α1*01:01;β1*15:01) [4]	binding score, HLA-DR7 (α1*01:01;β1*07:01) [5]	Number of allele (a) (HLA class II alleles)	T cell responses (IFNγ ELISpot), level and frequency of responders [6]	T cell responses (IFNγ ELISpot) grouped by infecting HBV genotype [6]	T cell responses (IFNγ ELISpot) grouped by ethnic background [6]	IFNγ response of splenocytes to each individual peptide component (BALB/c mice)	IFNγ response of splenocytes to each individual peptide component (BALB/c mice; listed as P376)
NP277(K): unconjugated HBV long peptide, polymerase 260-293 + KKK (RVSWPKFAVPNLQSLTNLLSSNLSWLSLDVSAAFYHKKK; HBV CONSENSUS SEQUENCE)	0.49%	0.10%	0.00%	5	18	6	5	3	0	1	0	3	0.18%	0.01%	1					
NP376: unconjugated HBV long peptide, polymerase 359-398 (C to S substitution at 393) (KLHLYSHPIILGFRKIPMGVGLSPFLLAQFTSAISSVVRR; HBV CONSENSUS SEQUENCE)	27.71%	0.00%	0.00%	6	35	8	10	6	0	6	1	4	6.29%			highest level of responses in both patient populations and in the highest proportion of subjects	highest responses across all four genotypes A, B, C & D	highest responses across all three ethnic groups	immune responses were dominated by four out of the 9 peptides contained in the vaccine	only observed with the formulation containing the fluorocarbon-conjugated peptides
NP797(K): unconjugated HBV long peptide, core 780-814 (C to S at 792) + KKK	0.20%	0.00%	0.00%	7	22	6	5	2	1	3	1	4	1.14%	0.01%	0	highest level of responses in both patient populations and in the highest proportion of subjects	highest responses across all four genotypes A, B, C & D	highest responses across all three ethnic groups		
